Where a chain is given by its changes, count along the chain named. Names and notes keep the numbering of the source.
B1: Var97, a variant of D519VE665V-FVIII with the additional amino acid substitutions I371P, V374F, V559L, R562W and Q565E (other)
chain: ATRRYYLGAVELSWDYMQSDLGELPVDARFPPRVPKSFPFNTSVVYKKTLFVEFTDHLFNIAKPRPPWMGLLGPTIQAEVYDTVVITLKNMASHPVSLHAVGVSYWKASEGAEYDDQTSQREKEDDKVFPGGSHTYVWQVLKENGPMASDPLCLTYSYLSHVDLVKDLNSGLIGALLVCREGSLAKEKTQTLHKFILLFAVFDEGKSWHSETKNSLMQDRDAASARAWPKMHTVNGYVNRSLPGLIGCHRKSVYWHVIGMGTTPEVHSIFLEGHTFLVRNHRQASLEISPITFLTAQTLLMDLGQFLLFCHISSHQHDGMEAYVKVDSCPEEPQLRMKNNEEAEDYDDDLTDSEMDVVRFDDDNSPSFIQPRSFAKKHPKTWVHYIAAEEEDWDYAPLVLAPDDRSYKSQYLNNGPQRIGRKYKKVRFMAYTDETFKTREAIQHESGILGPLLYGEVGDTLLIIFKNQASRPYNIYPHGITDVRPLYSRRLPKGVKHLKDFPILPGEIFKYKWTVTVEVGPTKSDPRCLTRYYSSFVNMERDLASGLIGPLLICYKESLDQWGNEIMSDKRNVILFSVFDENRSWYLTENIQRFLPNPAGVQLEDPEFQASNIMHSINGYVFDSLQLSVCLHEVAYWYILSIGAQTDFLSVFFSGYTFKHKMVYVDTLTLFPFSGETVFMSMENPGLWILGCHNSDFRNRGMTALLKVSSCDKNTGDYYEDSYEDISAYLLSKNNAIEPRSFSQNPPVLKRHQREITRTTLQSDQEEIDYDDTISVEMKKEDFDIYDEDENQSPRSFQKKTRHYFIAAVERLWDYGMSSSPHVLRNRAQSGSVPQFKKVVFQEFTDGSFTQPLYRGELNEHLGLLGPYIRAEVEDNIMVTFRNQASRPYSFYSSLISYEEDQRQGAEPRKNFVKPNETKTYFWKVQHHMAPTKDEFDCKAWAYFSDVDLEKDVHSGLIGPLLVCHTNTLNPAHGRQVTVQEFALFFTIFDETKSWYFTENMERNCRAPCNIQMEDPTFKENYRFHAINGYIMDTLPGLVMAQDQRIRWYLLSMGSNENIHSIHFSGHVFTVRKKEEYKMALYNLYPGVFETVEMLPSKAGIWRVECLIGEHLHAGMSTLFLVYSNKCQTPLGMASGHIRDFQITASGQYGQWAPKLARLHYSGSINAWSTKEPFSWIKVDLLAPMIIHGIKTQGARQKFSSLYISQFIIMYSLDGKKWQTYRGNSTGTLMVFFGNVDSSGIKHNIFNPPIIARYIRLHPTHYSIRSTLRMELMGCDLNSCSMPLGMESKAISDAQITASSYFTNMFATWSPSKARLHLQGRSNAWRPQVNNPKEWLQVDFQKTMKVTGVTTQGVKSLLTSMYVKEFLISSSQDGHQWTLFFQNGKVKVFQGNQDSFTPVVNSLDPPLLTRYLRIHPQSWVHQIALRMEVLGCEAQDLY
notes: Purified from HKB11 cells; also called Var97 variant; Var97 Factor VIII variant

How the values were obtained:
[1] = system: T1, Var97, a variant of D519VE665V-FVIII with the additional amino acid substitutions I371P, V374F, V559L, R562W and Q565E
T1 sequence: B1 chain

Var97-R336I = system: T2, Var97-R336I
T2 sequence: B1 chain with R336I

[2] = target: T3, Factor IXa (activated Coagulation Factor IX) (human, UniProt P00740 47-191; P00740 227-461, limits assumed); test: FXase kinetic assay: thrombin-activated FVIII fixed at 10 pM, FIXa varied 0-10 nM, FXa generation read with S-2765 (functional affinity)
T3 construct: also called FIXa
Protocol: The function of the Var97 variant in its physiologic enzyme complex was examined using FXase kinetic assays. These FXase kinetic assays were performed in 10 mM HEPES pH 7.4, 150 mM NaCl, 5 mM CaCl2, 0.01% Tween 20, 0.01% BSA and 10 μM PL (40:40:20, v/v/v PS:PC:PE). In these FXase kinetic assays, purified FVIIIa proteins were generated by incubation with 20 nM thrombin. The FVIII level was held fixed at 10 pM and reacted with varying concentrations of FIXa (0-10 nM), or the FIXa level was held fixed at (100 pM) and the level of thrombin activated FVIIIa was varied (0-10 nM). FX (150 nM) was added to either types of reactions, and after 1 min., the FXase reactions were stopped by addition to EDTA. The amount of FXa generated in these reactions were measured using the S-2765 chromogenic substrate. FXa generation was then extrapolated from a standard curve relating FXa level to rates of chromogenic substrate cleavage. The data was fit to a standard Michaelis-Menten equation to derive kinetic constants.

T3 sequence (P00740 47-191 limits assumed, form in doubt, chain 1 of 2): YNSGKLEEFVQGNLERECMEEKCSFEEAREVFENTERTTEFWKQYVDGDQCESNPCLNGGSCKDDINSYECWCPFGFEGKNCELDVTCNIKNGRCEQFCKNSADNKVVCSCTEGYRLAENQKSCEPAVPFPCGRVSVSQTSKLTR
T3 sequence (P00740 227-461 limits assumed, form in doubt, chain 2 of 2): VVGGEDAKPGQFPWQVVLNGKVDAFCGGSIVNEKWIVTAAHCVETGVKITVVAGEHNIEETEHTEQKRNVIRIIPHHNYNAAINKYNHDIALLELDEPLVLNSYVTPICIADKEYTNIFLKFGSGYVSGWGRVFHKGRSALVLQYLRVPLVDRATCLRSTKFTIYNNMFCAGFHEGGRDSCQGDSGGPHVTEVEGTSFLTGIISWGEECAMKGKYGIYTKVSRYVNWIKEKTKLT

Molecule | proteolytic cleavage of FVIII by excess FIXa in a FXase reaction (SDS-PAGE, Coomassie Blue) [1] | proteolytic cleavage in the FIXa digestion assay (SDS-PAGE) (Var97-R336I) | fold binding affinity for FIXa over FVIII-BDD [2]
Factor IXa (activated Coagulation Factor IX) | the Var97 Factor VIII variant shows enhanced proteolytic cleavage by FIXa relative to one or both of BDD and D519VE665V variant FVIII | proteolytic cleavage of Var97-R336I was markedly reduced as compared to Var97 | 
B1 |  |  | ≥ 4 fold

— patent US20160031968A1 (Bayer, published 2016)
